Laboratory results published in PMC6092330.

Molecular target: acid-purified histones (human (endogenous in TE-7))

CCL2 secretion by HMC-1 mast cells (42-cytokine multiplex array), fold change against untreated, 23.4 nM recombinant WT IL-33 without and with 6.7 µg/mL acid-purified histones: 822 fold
B1: recombinant GST-tagged full-length IL-33 (H00090865-P01, Abnova) (natural protein)
chain: MKPKMKYSTNKISTAKWKNTASKALCFKLGKSQQKAKEVCPMYFMKLRSGLMIKKEACYFRRETTKRPSLKTGRKHKRHLVLAACQQQSTVECFAFGISGVQKYTRALHDSSITGISPITEYLASLSTYNDQSITFALEDESYEIYVEDLKKDEKKDKVLLSYYESQHPSNESGDGVDGKMLMVTLSPTKDFWLHANNKEHSVELHKCEKPLPDQAFFVLHNMHSNCVSFECKTDPGVFIGVKDNHLALIKVDSSENLCTENILFKLSET
